Results taken from patent KR20180112916A (dated 2018).

Molecular target: T1, B-세포 에피토프 펩타이드 Myc362 (human)
T1 construct: Synthetic peptide of over 90% purity, coated on the ELISA plate at 5 ug/ml; also called Myc362 펩타이드
Assay: ELISA; Myc362 peptide coated at 5 ug/ml, antibody in serial dilution, HRP anti-IgG detection

T1 sequence (peptide, as listed by the source): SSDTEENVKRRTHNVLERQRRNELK

B1: 2E2F12 단클론 항체 (anti-Myc362 펩타이드-특이적인 단클론 항체) (antibody, V domains shown)
VH: EVQLQESGTELVKPGASVKLSCKASGYTFTSYWMHWVKLRPGQGFEWIGEINPSSGGTNYNENFKRKATLTVDRSSSTAYMQLSSLTSEDSAVYYCTIHRSYWGQGTTLTVSS
VL: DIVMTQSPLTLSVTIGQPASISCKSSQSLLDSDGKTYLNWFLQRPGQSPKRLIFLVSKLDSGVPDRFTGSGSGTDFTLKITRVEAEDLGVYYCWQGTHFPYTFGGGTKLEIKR
notes: also called 2E2F12 클론; anti-c-Myc 단클론 항체
In the case of B1, the Kd is reported as about 37 nM.
